Laboratory results published in patent publication US20120328616A1 (Amgen, published 2012).

How the values were obtained:
murine β-Klotho = target: T1, murine β-Klotho (murine, UniProt Q99N32 1-1043); test: flow cytometry, transfected HEK-293T
T1 construct: Full length (GenBank NP-112457), transiently expressed on HEK-293T cells; also called mu β-klotho; mouse β-Klotho
T1 sequence: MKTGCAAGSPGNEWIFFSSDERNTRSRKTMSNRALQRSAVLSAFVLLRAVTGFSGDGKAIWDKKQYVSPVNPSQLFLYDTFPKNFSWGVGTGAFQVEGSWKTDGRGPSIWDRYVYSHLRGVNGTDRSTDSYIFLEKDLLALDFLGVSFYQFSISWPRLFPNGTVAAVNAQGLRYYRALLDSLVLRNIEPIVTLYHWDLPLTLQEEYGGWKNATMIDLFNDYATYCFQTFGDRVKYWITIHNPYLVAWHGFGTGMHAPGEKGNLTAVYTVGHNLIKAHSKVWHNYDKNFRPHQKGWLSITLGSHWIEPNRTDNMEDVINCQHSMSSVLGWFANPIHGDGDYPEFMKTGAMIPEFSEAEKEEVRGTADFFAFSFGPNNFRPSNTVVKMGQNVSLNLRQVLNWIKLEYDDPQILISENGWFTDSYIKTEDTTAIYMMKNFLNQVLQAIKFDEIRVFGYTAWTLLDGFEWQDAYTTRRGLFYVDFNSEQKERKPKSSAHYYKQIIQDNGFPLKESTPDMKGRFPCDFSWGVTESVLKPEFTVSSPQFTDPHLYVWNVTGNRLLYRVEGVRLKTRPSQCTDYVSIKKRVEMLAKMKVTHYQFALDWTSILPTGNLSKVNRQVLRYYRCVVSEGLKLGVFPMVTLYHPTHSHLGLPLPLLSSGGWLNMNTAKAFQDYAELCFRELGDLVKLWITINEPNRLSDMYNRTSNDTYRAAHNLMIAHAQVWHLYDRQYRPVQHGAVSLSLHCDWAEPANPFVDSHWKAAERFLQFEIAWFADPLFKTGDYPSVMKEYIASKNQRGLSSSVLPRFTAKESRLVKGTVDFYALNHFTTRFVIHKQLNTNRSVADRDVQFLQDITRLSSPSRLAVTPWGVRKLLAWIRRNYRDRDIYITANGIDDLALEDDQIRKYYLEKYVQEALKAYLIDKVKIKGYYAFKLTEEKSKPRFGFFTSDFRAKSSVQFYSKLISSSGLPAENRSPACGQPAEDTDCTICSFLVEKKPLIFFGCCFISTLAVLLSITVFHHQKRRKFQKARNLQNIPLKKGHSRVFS

[1] = target: T2, huBeta_Klotho (1-633, 852-1044) (muBeta KLOTHO 632G-849Q) (human; murine, UniProt Q86Z14 1-1044); test: flow cytometry, transfected HEK-293T
T2 construct: also called Chimera 10; Construct 10

[2] = target: T3, huBeta_Klotho (1-301, 509-743, 967-1044) (muBeta KLOTHO 302-506, 742-964) (human; murine, UniProt Q86Z14 1-1044); test: flow cytometry, transfected HEK-293T
T3 construct: also called Chimera 14; Construct 14
T3 chain: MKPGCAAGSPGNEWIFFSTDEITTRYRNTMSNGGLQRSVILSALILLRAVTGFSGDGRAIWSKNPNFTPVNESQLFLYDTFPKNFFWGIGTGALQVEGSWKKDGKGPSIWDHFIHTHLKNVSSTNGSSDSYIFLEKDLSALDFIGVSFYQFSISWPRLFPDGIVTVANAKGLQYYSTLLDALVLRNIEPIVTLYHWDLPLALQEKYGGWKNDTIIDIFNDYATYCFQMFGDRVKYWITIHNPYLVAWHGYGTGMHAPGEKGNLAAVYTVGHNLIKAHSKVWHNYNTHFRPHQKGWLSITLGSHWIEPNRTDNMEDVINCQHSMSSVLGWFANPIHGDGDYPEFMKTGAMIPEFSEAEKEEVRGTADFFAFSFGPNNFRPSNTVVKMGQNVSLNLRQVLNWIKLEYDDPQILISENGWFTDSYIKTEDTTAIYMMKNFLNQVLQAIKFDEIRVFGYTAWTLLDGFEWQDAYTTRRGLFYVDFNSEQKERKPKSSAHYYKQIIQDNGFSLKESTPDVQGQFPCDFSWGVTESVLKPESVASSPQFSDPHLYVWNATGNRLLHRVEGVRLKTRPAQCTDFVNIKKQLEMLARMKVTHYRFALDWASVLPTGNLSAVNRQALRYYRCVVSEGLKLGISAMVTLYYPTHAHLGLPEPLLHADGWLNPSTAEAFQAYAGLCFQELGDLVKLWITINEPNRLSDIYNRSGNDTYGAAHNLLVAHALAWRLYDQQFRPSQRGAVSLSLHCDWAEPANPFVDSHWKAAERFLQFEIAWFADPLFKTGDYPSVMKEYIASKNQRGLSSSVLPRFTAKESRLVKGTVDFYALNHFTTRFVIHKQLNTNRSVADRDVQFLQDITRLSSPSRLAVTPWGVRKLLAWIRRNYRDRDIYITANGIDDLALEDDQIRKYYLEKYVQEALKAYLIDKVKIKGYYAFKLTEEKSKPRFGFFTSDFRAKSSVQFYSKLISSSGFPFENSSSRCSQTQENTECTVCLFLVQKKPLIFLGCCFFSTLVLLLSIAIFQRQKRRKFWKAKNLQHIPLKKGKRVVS

[3] = target: T4, huBeta_Klotho (1-507) (muBetaKLOTHO 506F-1045S) (human; murine, UniProt Q99N32 1-1043); test: flow cytometry, transfected HEK-293T
T4 construct: also called Chimera 2; Construct 2

[4] = target: T5, huBeta_Klotho (1-736, 967-1044) (muBeta KLOTHO 735A-963S) (human; murine, UniProt Q86Z14 1-1044); test: flow cytometry, transfected HEK-293T
T5 construct: also called Chimera 11; Construct 11

human FGFR1c = target: T6, human FGFR1c (human, UniProt P11362 22-822); test: flow cytometry, transfected HEK293T
T6 construct: Full length (GenBank NP-075598), expressed on transfected 293T cells; also called huFGFR1c; FGFR1c alone

B1: 54A1.1 (antibody, V domains shown)
VH: QVQLVQSGAEVKKPGASVKVSCKASGYTFTSYDINWVRQATGQGLEWMGWMNPHSGNTGYAQKFQGRVTMTRNTSINTAYMELSSLRSEDTAVYYCAKYNWNYGAFDFWGQGTMVTVSS
VL: DIQMAQSPSSLSASVGDRVTITCQASQDISIYLNWYQLKPGKAPKLLIYDVSNLETGVPSRFSGGGSGTDFTFTISSLQPEDIATYYCQQYDNLPLTFGPGTKVDIKR
Murine β-Klotho
  binding result: no binding
[1]
  binding result: binds
[2]
  binding result: no binding
[3]
  binding result: binds
[4]
  binding result: binds
Human FGFR1c
  binding result: no binding
